Test results reported in patent US20250339569A1, “CARBONIC ANHYDRASE IX LIGANDS” (priority 2021, published 2025).

Target: human carbonic anhydrase 9 (CAIX) (human), Q16790
Experiment: FACS competition on HT-29 cells, competitor tracer 3BP-2776; category A = pIC50 >8.0

pIC50: > 8 pic50
Binder: VCCEPDWLTWCC (modifications not checked) [3BP-4179]
